Where two headings read alike, the source gives them in different places.
Legend:
[1] = target: T1, SARS-CoV-2 receptor binding domain (RBD), wild type, His-tagged (SARS-CoV-2, UniProt P0DTC2 319-541); assay: BLI competition on His-tagged RBD, after 1st Ab 46
T1 construct: domain: RBD; also called His-tagged RBD; BEI NR52309

[2] = target: T1, SARS-CoV-2 receptor binding domain …; assay: BLI competition on His-tagged RBD, after 1st Ab 298
[3] = target: T1, SARS-CoV-2 receptor binding domain …; assay: BLI competition on His-tagged RBD, after 1st Ab 82
[4] = target: T1, SARS-CoV-2 receptor binding domain …; assay: BLI competition on His-tagged RBD, after 1st Ab 52
[5] = target: T1, SARS-CoV-2 receptor binding domain …; assay: BLI competition on His-tagged RBD, after 1st Ab 80
[6] = target: T1, SARS-CoV-2 receptor binding domain …; assay: method and format not given
[7] = target: T2, SARS-CoV-2 RBD mutant L452R (SARS-CoV-2, UniProt P0DTC2 319-541); assay: BLI, IgG on mutated RBD compared with WT RBD; negative = decreased
T2 construct: domain: RBD; also called mutated RBD L452R

[8] = target: T1, SARS-CoV-2 receptor binding domain …; assay: method and format not given; remark: listed apart in the source
[9] = target: T1, SARS-CoV-2 receptor binding domain …; assay: BLI competition on His-tagged RBD, after 1st Ab 236
[10] = target: T1, SARS-CoV-2 receptor binding domain …; assay: BLI competition on His-tagged RBD, after 1st Ab 324

B1: mAb 236 (antibody, V domains shown)
VH: QVQLVQSGAEVKKPGASVKVSCKASGGTFTSYGINWVRQAPGQGLEWMGWMNPNSGNTGYAQKFQGRVTMTRDTSTSTVYMELSSLRSEDTAVYYCASRGIQLLPRGMDVWGQGTTVTVSS
VL: not shown
notes: also called IgG 236; Antibody 236
RBD binding of 2nd Ab after 1st Ab (heat map) [1]: 1.2 | RBD binding of 2nd Ab after 1st Ab (heat map) [2]: 0.2 | RBD binding of 2nd Ab after 1st Ab (heat map) [3]: 0.2 | RBD binding of 2nd Ab after 1st Ab (heat map) [4]: 1 | RBD binding of 2nd Ab after 1st Ab (heat map) [5]: 0.1 | Kd [6]: 145 nM | Affinity change vs WT RBD (fold-change) [7]: -4.1 | Kd [8]: 145 nM | RBD binding of 2nd Ab after 1st Ab (heat map) [9]: 0.3 | RBD binding of 2nd Ab after 1st Ab (heat map) [10]: 0.4

— patent US20250002564A1 (HOSPITAL FOR SICK CHILDREN, published 2025)
